Among the data in patent US20200231654A1 (published 2020) are IC50, EC50 and Ki values, retold here.

Numbering of substitutions follows the chain as printed.

The chains are these.
T1: Recombinant Human Matriptase/ST14 Catalytic Domain (human, UniProt Q9Y5Y6 596-855)
T1 chain: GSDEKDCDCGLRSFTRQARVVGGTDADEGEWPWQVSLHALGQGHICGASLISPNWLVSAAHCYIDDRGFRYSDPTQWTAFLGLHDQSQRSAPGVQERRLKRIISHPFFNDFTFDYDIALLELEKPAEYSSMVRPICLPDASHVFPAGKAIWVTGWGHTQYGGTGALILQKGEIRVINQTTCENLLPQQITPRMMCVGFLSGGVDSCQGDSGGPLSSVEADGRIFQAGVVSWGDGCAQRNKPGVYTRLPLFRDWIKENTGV

T2: Chymase human recombinant expressed in Pichia pastoris (human, UniProt P23946 22-247)
T2 chain: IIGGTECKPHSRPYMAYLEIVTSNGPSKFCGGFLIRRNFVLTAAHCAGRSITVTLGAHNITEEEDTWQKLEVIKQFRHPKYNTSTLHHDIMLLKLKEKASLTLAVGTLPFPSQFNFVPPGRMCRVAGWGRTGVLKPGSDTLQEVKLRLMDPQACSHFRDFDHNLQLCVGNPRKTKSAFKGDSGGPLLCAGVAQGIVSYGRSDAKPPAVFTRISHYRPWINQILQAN

T3: Neutrophil elastase (human) (human, UniProt P08246 30-247)
T3 chain: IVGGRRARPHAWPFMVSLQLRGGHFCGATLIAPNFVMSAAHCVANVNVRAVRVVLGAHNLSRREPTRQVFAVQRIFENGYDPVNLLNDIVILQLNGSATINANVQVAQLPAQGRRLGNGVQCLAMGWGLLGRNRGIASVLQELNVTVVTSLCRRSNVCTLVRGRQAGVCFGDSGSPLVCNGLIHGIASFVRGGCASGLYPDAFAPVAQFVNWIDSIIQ

T4: Plasmin from human plasma (human, UniProt P00747 97-810)
T4 chain: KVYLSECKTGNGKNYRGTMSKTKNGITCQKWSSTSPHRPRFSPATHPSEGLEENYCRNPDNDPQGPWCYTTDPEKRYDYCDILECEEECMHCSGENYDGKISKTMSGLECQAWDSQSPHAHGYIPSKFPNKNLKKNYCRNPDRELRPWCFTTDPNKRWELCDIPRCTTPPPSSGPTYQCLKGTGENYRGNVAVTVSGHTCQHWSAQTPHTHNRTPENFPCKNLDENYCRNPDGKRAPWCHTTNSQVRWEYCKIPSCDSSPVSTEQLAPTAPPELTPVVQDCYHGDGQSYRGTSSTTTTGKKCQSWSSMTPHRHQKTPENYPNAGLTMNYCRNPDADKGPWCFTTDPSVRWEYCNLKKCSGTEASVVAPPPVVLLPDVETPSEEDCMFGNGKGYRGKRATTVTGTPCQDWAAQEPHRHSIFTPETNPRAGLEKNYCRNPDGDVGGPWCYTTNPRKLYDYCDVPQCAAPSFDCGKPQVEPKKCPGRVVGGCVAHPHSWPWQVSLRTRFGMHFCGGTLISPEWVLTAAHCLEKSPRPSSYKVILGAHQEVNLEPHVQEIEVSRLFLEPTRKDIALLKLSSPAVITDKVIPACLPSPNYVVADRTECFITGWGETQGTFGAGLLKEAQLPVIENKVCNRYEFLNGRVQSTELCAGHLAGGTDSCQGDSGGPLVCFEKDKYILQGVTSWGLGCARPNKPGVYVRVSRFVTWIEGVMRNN

B1: active MMP-9-binding peptide M91014 (designed binder)
chain: GSGMKETAAAKFERQHMDSPDLGTDDDDKAMADIGSANSDPQFGLFSKYRTPNCVMYKYAQCSHKYKPVCGSDMSTYANECTLCMKIREGGHNIKIIRNGPCGASAAA
B2: active MMP-9-binding peptide M91004 (designed binder)
chain: GSGMKETAAAKFERQHMDSPDLGTDDDDKAMADIGSANSDPQFGLFSKYRTPNCRQRKGPSCQMAFQPVCGSDMSTYANECTLCMKIREGGHNIKIIRNGPCGASAAA
B3: active MMP-9-binding peptide M91010 (designed binder)
chain: B2 chain with Q56K, R57V, K58G, G59E, S61A, A65S, Q67N
B4: active MMP-9-binding peptide M91001 (designed binder)
chain: B2 chain with R55Q, Q56R, R57G, K58I, A65S, F66Y, Q67K
B5: active MMP-9-binding peptide M91011 (designed binder)
chain: B1 chain with V55M, Y66S, K67Q
B6: active MMP-9-binding peptide M91002 (designed binder)
chain: B2 chain with Q56T, R57G, K58R, S61A, A65G
B7: active MMP-9-binding peptide M91012 (designed binder)
chain: B2 chain with Q56V, K58G, A65S, Q67N

Chain of α-Chymotrypsin from human pancreas (P17538 19-263): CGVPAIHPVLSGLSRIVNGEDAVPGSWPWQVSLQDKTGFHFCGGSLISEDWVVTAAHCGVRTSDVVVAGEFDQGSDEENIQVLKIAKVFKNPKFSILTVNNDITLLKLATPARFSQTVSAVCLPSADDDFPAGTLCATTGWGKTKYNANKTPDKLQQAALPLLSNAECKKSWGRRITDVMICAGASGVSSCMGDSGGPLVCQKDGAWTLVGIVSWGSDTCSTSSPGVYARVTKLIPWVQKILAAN
Chain of active hMMP-9(cat)_His6 (P14780 107-449): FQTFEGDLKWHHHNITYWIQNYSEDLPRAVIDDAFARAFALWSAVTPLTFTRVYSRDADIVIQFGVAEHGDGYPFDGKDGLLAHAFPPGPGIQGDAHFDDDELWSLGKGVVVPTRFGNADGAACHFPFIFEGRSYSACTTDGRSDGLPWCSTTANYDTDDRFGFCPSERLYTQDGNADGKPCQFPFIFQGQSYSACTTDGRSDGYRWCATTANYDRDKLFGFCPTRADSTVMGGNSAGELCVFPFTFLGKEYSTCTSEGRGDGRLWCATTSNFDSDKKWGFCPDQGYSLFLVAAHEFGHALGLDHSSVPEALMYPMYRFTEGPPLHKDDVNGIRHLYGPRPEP
Chain of recombinant human plasma kallikrein/KLKB1 Protein (P03952 20-638): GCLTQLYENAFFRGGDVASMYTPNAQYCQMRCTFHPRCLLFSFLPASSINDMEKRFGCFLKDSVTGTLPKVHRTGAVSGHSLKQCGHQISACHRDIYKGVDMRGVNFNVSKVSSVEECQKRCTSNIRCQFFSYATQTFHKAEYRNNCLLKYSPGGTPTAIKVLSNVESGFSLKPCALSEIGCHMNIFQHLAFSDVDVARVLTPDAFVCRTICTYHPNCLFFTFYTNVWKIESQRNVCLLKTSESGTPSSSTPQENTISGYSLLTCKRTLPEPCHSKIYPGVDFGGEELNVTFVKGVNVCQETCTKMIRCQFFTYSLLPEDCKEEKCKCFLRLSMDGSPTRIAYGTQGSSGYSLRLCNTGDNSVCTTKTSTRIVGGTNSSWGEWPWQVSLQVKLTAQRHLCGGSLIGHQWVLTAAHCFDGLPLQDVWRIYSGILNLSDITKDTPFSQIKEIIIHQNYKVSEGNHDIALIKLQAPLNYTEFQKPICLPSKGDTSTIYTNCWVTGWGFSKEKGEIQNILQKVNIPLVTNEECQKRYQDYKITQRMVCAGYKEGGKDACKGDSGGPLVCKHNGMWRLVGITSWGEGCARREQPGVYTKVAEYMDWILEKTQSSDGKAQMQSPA
Chain of active mMMP-9(cat)_FLAG_Avi (P41245 other isoform, or with tags, fused parts or gaps): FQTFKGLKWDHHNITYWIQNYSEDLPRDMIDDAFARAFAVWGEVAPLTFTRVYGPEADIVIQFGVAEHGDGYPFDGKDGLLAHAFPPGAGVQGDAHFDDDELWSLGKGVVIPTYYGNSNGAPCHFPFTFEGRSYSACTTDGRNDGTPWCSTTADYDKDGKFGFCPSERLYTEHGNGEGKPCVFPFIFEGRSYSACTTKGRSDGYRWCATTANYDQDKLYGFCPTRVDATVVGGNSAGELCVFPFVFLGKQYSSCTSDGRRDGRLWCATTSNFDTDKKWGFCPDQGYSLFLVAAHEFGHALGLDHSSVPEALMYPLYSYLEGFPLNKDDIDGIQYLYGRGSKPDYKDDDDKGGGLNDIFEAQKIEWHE
Chain of biotin-labeled active hMMP-9(cat)_FLAG_Avi (P14780 other isoform, or with tags, fused parts or gaps): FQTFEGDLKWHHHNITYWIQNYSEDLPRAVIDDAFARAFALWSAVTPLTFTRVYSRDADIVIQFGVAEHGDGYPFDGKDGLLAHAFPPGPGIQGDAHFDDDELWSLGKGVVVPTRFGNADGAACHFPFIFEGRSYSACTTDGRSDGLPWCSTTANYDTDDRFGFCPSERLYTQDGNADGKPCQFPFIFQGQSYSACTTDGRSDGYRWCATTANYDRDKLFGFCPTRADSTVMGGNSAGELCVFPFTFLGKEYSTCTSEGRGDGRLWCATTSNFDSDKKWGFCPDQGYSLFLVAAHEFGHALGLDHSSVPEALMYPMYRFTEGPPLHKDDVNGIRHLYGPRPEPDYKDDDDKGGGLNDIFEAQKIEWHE

The target in the first experiment is human MMP-3 activated by APMA (human, UniProt P08254 100-477). The experiment can be described thus: enzyme inhibition.
Chain of human MMP-3 activated by APMA (P08254 100-477): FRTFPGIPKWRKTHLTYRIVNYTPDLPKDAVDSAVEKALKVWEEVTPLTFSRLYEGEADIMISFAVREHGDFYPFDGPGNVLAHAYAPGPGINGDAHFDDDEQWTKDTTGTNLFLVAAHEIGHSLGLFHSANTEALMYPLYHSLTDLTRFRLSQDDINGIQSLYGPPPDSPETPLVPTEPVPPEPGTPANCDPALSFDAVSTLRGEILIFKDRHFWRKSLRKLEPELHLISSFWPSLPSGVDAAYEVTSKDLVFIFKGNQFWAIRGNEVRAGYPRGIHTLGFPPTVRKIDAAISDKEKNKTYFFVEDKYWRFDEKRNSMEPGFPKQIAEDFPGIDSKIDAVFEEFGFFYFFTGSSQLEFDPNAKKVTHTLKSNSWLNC
By IC50 is commonly meant the concentration that gives 50% inhibition. As to B1, the IC50 was over 1 µM.

Consider B2, for which the IC50 is over 1 µM.

With B3, the IC50 is over 1 µM.

For the molecule B4, the IC50 was over 1 µM.

As for B5, the IC50 is over 1 µM.

As for B6, the IC50 was over 1 µM.

Consider B7, for which the IC50 is over 1 µM.

The target in another experiment is MMP-10 (catalytic domain) (human), (recombinant) (human, UniProt P09238 99-266). The experiment can be described thus: enzyme inhibition.
Chain of MMP-10 (catalytic domain) (human), (recombinant) (P09238 99-266): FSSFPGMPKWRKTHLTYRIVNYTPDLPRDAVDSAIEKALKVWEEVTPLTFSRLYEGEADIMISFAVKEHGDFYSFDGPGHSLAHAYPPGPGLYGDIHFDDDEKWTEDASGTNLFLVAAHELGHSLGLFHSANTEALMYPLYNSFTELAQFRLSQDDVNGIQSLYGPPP
On to B1, for which the IC50 was over 1 µM.

On to B2, for which the IC50 was over 1 µM.

Take B3: the IC50 is over 1 µM.

Regarding B4, the IC50 was over 1 µM.

With B5, the IC50 was over 1 µM.

With B6, the IC50 is over 1 µM.

Regarding B7, the IC50 was over 1 µM.

The target of a further experiment is Protein C from human plasma (human, UniProt P04070 43-461). The experiment can be described thus: substrate peptide degradation inhibition.
Chain of Protein C from human plasma (P04070 43-461): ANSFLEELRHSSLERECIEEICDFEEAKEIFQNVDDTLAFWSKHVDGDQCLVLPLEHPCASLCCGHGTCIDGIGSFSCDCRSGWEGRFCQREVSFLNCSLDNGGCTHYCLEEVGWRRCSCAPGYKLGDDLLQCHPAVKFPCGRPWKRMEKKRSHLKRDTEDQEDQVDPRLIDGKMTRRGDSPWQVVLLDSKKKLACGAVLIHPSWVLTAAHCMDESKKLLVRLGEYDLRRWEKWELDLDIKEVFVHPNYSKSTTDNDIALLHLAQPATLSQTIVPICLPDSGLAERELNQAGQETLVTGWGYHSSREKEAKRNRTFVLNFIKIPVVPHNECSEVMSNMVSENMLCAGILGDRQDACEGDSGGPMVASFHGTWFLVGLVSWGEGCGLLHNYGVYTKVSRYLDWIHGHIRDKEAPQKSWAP
As to B1, the IC50 was over 1 µM.

For the molecule B2, the IC50 was over 1 µM.

B3 came in with an IC50 of over 1 µM.

In the case of B4, the IC50 was over 1 µM.

Take B5: the IC50 was over 1 µM.

In turn, B6 registered a half-maximal inhibitory concentration (IC50) of over 1 µM.

B7: the IC50 is over 1 µM.

The target in a further experiment is T1, Recombinant Human Matriptase/ST14 …. The experiment can be described thus: substrate peptide degradation inhibition.
For B1, the IC50 was over 1 µM.

B2: the IC50 is over 1 µM.

For B3, the IC50 is over 1 µM.

With B4, the IC50 was over 1 µM.

Consider B5, for which the IC50 was over 1 µM.

As for B6, the IC50 was over 1 µM.

As to B7, the IC50 is over 1 µM.

The next experiment has as its target T2, Chymase human recombinant expressed in …. The experiment is described as follows: substrate peptide degradation inhibition.
As to B1, the IC50 was over 1 µM.

For the molecule B2, the IC50 was over 1 µM.

In the case of B3, the IC50 was over 1 µM.

For the molecule B4, the IC50 is over 1 µM.

On to B5, for which the IC50 was over 1 µM.

Take B6: the IC50 was over 1 µM.

Consider B7, for which the IC50 is over 1 µM.

Another experiment concerns the target Thrombin from human plasma (human, UniProt P00734 328-622). The experiment can be described thus: substrate peptide degradation inhibition.
The molecule B1 displayed an IC50 of over 1 µM.

The molecule B2 displayed a concentration for half-maximal inhibition (IC50) of over 1 µM.

The molecule B3 had an IC50 of over 1 µM.

Regarding B4, the IC50 was over 1 µM.

In turn, B5 came in with an IC50 of over 1 µM.

B6 had an IC50 of over 1 µM.

The molecule B7 registered an IC50 of over 1 µM.

For another experiment, the target named is Tryptase from human lung (human, UniProt Q15661 31-275). The experiment is described as follows: substrate peptide degradation inhibition.
Chain of Tryptase from human lung (Q15661 31-275): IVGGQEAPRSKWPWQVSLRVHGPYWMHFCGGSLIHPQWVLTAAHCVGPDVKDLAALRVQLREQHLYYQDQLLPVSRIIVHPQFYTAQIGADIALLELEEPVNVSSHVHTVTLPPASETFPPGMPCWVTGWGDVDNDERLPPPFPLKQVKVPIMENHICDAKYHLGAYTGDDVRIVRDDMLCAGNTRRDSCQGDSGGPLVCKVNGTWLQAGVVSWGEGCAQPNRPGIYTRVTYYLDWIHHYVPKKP
The molecule B1 came in with an IC50 of over 1 µM.

B2 had an IC50 of over 1 µM.

In turn, B3 had an IC50 of over 1 µM.

Molecule B4 displayed an IC50 of over 1 µM.

In the case of B5, the IC50 is over 1 µM.

B6: the IC50 was over 1 µM.

Take B7: the IC50 was over 1 µM.

In another experiment the target is tissue plasminogen activator human (human, UniProt P00750 36-562). The experiment is described as follows: substrate peptide degradation inhibition.
Chain of tissue plasminogen activator human (P00750 36-562): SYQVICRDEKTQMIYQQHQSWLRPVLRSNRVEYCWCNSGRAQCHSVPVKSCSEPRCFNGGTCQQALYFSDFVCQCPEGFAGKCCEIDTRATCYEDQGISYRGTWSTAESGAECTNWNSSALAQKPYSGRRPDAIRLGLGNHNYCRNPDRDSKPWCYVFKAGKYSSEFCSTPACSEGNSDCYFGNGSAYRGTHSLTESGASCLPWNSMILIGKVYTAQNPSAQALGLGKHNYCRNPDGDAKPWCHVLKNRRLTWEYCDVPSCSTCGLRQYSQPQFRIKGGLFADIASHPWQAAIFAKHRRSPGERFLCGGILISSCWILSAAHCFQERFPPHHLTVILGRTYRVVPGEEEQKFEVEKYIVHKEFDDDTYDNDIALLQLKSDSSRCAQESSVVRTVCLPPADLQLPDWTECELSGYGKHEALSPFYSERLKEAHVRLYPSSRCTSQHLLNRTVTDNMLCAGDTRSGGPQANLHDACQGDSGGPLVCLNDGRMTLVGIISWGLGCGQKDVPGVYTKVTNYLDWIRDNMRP
B1 gave an IC50 of over 1 µM.

Regarding B2, the IC50 was over 1 µM.

B3 returned an IC50 of over 1 µM.

B4 registered an IC50 of over 1 µM.

In the case of B5, the IC50 was over 1 µM.

Molecule B6 came in with an IC50 of over 1 µM.

B7 gave an IC50 of over 1 µM.

Another experiment concerns the target urokinase from human urine (human, UniProt P00749 21-431). The experiment is described as follows: substrate peptide degradation inhibition.
On to B1, for which the IC50 was over 1 µM.

Molecule B2 came in with an IC50 of over 1 µM.

The molecule B3 showed an IC50 of over 1 µM.

In the case of B4, the IC50 was over 1 µM.

As for B5, the IC50 is over 1 µM.

The molecule B6 gave an IC50 of over 1 µM.

As to B7, the IC50 is over 1 µM.

The next experiment has as its target recombinant human plasma kallikrein/KLKB1 Protein (human, UniProt P03952 20-638). The experiment is described as follows: substrate peptide degradation inhibition.
Regarding B1, the IC50 is over 1 µM.

For B2, the IC50 is over 1 µM.

For B3, the IC50 is over 1 µM.

Regarding B4, the IC50 was over 1 µM.

As to B5, the IC50 is over 1 µM.

With B6, the IC50 was over 1 µM.

As to B7, the IC50 is over 1 µM.

The next experiment has as its target Trypsin from Human Pancreas (human, UniProt P07477 24-247). The experiment is described as follows: substrate peptide degradation inhibition.
In turn, B1 came in with an IC50 of over 1 µM.

Consider B2, for which the IC50 was over 1 µM.

B3 came in with an IC50 of over 1 µM.

As to B4, the IC50 was over 1 µM.

For the molecule B5, the IC50 is over 1 µM.

Take B6: the half-maximal inhibitory concentration (IC50) was over 1 µM.

Consider B7, for which the IC50 is over 1 µM.

The next experiment has as its target T3, Neutrophil elastase (human). The experiment can be described thus: substrate peptide degradation inhibition.
Molecule B1 yielded an IC50 of over 1 µM.

For the molecule B2, the IC50 was over 1 µM.

The molecule B3 returned an IC50 of over 1 µM.

On to B4, for which the IC50 was over 1 µM.

Regarding B5, the IC50 is over 1 µM.

With B6, the IC50 was over 1 µM.

Molecule B7 came in with an IC50 of over 1 µM.

The next experiment addresses T4, Plasmin from human plasma. The experiment can be described thus: substrate peptide degradation inhibition.
As to B1, the IC50 is over 1 µM.

Turning to B2, the IC50 is over 1 µM.

B3 registered an IC50 of over 1 µM.

Take B4: the IC50 is over 1 µM.

B5 had an IC50 of over 1 µM.

In turn, B6 displayed an IC50 of over 1 µM.

In turn, B7 displayed an IC50 of over 1 µM.

The next experiment concerns the target α-Chymotrypsin from human pancreas (human, UniProt P17538 19-263). The experiment is described as follows: substrate peptide degradation inhibition.
Regarding B1, the IC50 was over 1 µM.

B2 gave an IC50 of over 1 µM.

B3 returned an IC50 of over 1 µM.

As to B4, the IC50 was over 1 µM.

As to B5, the IC50 was over 1 µM.

Consider B6, for which the IC50 is over 1 µM.

With B7, the IC50 was over 1 µM.

Another experiment has as its target biotin-labeled active hMMP-9(cat)_FLAG_Avi (UniProt P14780 107-449, biotin on the Avi tag (biotin ligase BirA)). The experiment can be described thus: ELISA. On the technique in general: An ELISA detects its analyte on a solid surface through an enzyme-linked reagent.
As a reminder, the EC50 is the midpoint of the concentration-response curve. A high value points to lower potency in that assay. Take B1: the EC50 was found to be 0.008 µM.

Molecule B2 yielded an EC50 of 0.042 µM.

In the case of B3, a half-maximal response (EC50) required 0.048 µM.

B4: it took 0.022 µM to reach a half-maximal effect (EC50).

As to B5, the midpoint of the response, the EC50, lay at 0.016 µM.

As to B6, the EC50 amounted to 0.047 µM.

In turn, B7 had an EC50 of 0.046 µM.

The next experiment has as its target active mMMP-9(cat)_FLAG_Avi (UniProt P41245 108-450). The experiment is described as follows: enzyme inhibition; substrate peptide.
For the molecule B1, 0.0092 µM corresponded to half-maximal inhibition (IC50).

The molecule B2 displayed an IC50 of 0.0071 µM.

Molecule B3 yielded an IC50 of 0.005 µM.

Take B4: the IC50 was 0.0041 µM.

B5: 0.021 µM corresponded to half-maximal inhibition (IC50).

For the molecule B6, the IC50 is 0.0051 µM.

As to B7, it took 0.0078 µM to reach half-maximal inhibition (IC50).

Another experiment concerns the target active hMMP-9(cat)_His6 (UniProt P14780 107-449). The experiment can be described thus: enzyme inhibition; substrate peptide.
The term Ki denotes a dissociation constant, usually derived from enzyme kinetics or from competition with a known ligand. Read a low Ki as higher affinity. Take B1: affinity was put at a Ki of 0.00045 µM. This lies in the sub-nanomolar range.

B2 came in with a Ki of 0.0012 µM.

As to B3, affinity was put at a Ki of 0.0012 µM.

For the molecule B4, the affinity, expressed as Ki, was 0.0026 µM. This Ki is about 2.2-fold higher than that of the molecule before.

B5: the Ki is 0.0016 µM. This Ki lies about 1.6-fold lower than the previous one.

As to B6, the Ki amounted to 0.0023 µM. The Ki values of the last two molecules are within 1.5-fold of each other.

The molecule B7 displayed a Ki of 0.0021 µM.
